Assay results: the nanobody polyreactivity screen of Harvey et al. (2022)

Assay: yeast display, Sf9 membrane polyspecificity reagent, FACS + sequencing; frameworks hold sequencing errors
Method in brief: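 After 36–48 hours of galactose induction, yeast (Saccharomyces cerevisiae BJ5465) displaying a synthetic nanobody library were stained at 4 °C for 1 hour with 10% biotinylated, detergent-solubilized Sf9 membrane reagent. Streptavidin microbeads enriched the stained cells before FACS sorting into low and high (top ~1%) gates on anti-HA and streptavidin fluorescence. Each clone's polyreactivity label reflects its gate of origin.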

Sequence	polyreactivity (PSR sort gate)
QVQLVESGGGLVQAGGSLRLSCAASGRIFGYNAMGWYRQAPGKERELVAAIRYSGGRTYYADSVKGRFTISRDNAKNTVYLQMNSLKREDTAVYYCAATAFDKLKVWYYYWGQGTQVTVSS	high polyreactivity
QVQLVESGGGLVQAGGSLRLSCAASGFTFIYYAMGWYRQAPGKERELVAAIRWSGGSTYYADSVKGRFTISRDNAKNTVYLQMNSLKPEDTAVYYCAARAIYKSKYDYWGQGTQVTVSS	high polyreactivity
QVQLEESGGGLVQAGGSLRLSCAASGITFPRYAMGWYRQAPGKERELVAAIRWNGGSTYYADSVKGRFTISRDNAKNTVYLQMNSLKPEDTAVYYCAARKDPSFSSFGYGYWGQGTQVTVSS	high polyreactivity
QVQLVESGGGLVQAGGSLRLSCAASGLILRKYAMGWYRQAPGKEREFVAAITQTGSRTYYADSVKGRFTISRDNAKNTVYLQMNSLKPEDTAVYYCNAVNYRSSRDSGYWGQGTQVTVSS	high polyreactivity
QVQLVESGGGLVKSGGSLRLSCAASGGTFKPNVMGWYIQAPGKERELVAAITSGGSTYYADSVKGRFTISRDNAKNTVYLQMNSLKPEDTAVYYCAASSLRRYGYNYWGQVTQVTVSS	high polyreactivity
QVQLVESGGGLVQAGGSLRLSCAASGSTLVYYDMGWYRKAPGKERELVATITGTDSTYYADSVKGRFTISRDNAKNTVYLQMNSLKPEDTADCAADRAASRPDYDYWGQGTQVTVSS	low polyreactivity
QVQLVESGGGLVQAGGSLRLSCAASGFIFQYYSMGWYRQAPGKERELVATITSRGGSTYYADSVKGRFTISRDNAKNTVYLQMNSLKPEDTAFYYCNARSSSPRKYGYWGQGTQVTVSS	high polyreactivity
QDQLVESGGGFVQEGGSLRLSCDPSGRIFYGYVMGRYRQAHGKERELVAAISRRGGSTYYADSVKGRFTISRDNAKNTVYLQMNSMKPVVTAVDYCDAVLSFALVQYYGANRDDYWGQGTQVSVSS	high polyreactivity
QVQLVESGGGLVQAGGSLRLSCAASGSTFYYNAMGWYRQAPGQERELVAAITSGGGTNYADSVKGRFTISRDNAKNTVYLQLNSLKPEDTAVYYCAADIYPLAIGAFRDDYWGQRTQVTVSS	low polyreactivity
QVQLVESGGGLVQAGGSLRLSCAASGSIFERYAMGWYRPAPGKERELVAGISSDGSTYADSVKGRFTISRDNAKNTVFLQMNSLKPEDTAVYYCAAAAWDPKGSRYDYWGQGTQVTVSS	low polyreactivity
QVQLVESGGGLVQAGGSLRLSCAASGRIFHRYVMGWYRQAPGKERELVAAISSGTGSTYYADSVKGRFTISRDTAKNTVYLLMNSLIPEDTAVYYCNAAPGYTSVTYDYWGQGTQVTVSS	high polyreactivity
QVQLVESGGGLVQAGGSLRLSCAASGRTFGTNAMGWYRPAPGKERELVAAISWRGTSTYYADSVKGRFTISRDNAKNTVYLQMNILKPEVTAVYYCAADFSYTSYATRYQGDYWGQGTQVTVSS	low polyreactivity
QVHLVESGGGLVQAGGSLRLSCAASGRNFDNKAMGWYRQAPGKERELVATLSRNGGSTYYADSVKGRFTISRDNAKNTVYLQINRLKRDDTAVYYCNKRTRFIPSFDYWGQGTQVTVSS	low polyreactivity
QVQLVESGGGLVQAGGTISLSCAASGRTYRNNAMGWYRQAPGKEMELVAAISRTGGRTYYADSVKGRFTISRDNAKNPVYLQMNSLKPEDSAVYYCNAAYLVREYDYWGQGTQVTVSS	high polyreactivity
QVQLVEPGGGLVQAGGSLRLSCAASGSTFTLYAMGWYRQAPGKERELVATLTGSAGSTNYADSVKGRFTISRDNAKNTVYLQMNSLKPEDTAVYYCAKRVQQSTWYGYGIGYEYWGQGTQVTVSS	high polyreactivity
QVQLVESGGGLVQAGGSLRLTCAASGSIFSYNAKGRYRQAPGKERELVAGITTGDSTNYADSVKGRFTISRDNAKNTVYLQMNCLKPEDTAVYYCAATRLVSYHYPDLDSQQGGYWGQGTQVTVSS	low polyreactivity
QVQLVESGGGLVQAGGSLGLSCAATGSIFNPYAMGWYRQAPGKVRELVAAISSTGSTYYADSVKGRFTISRDNAKNTVYLQMISLKPEDTAVYYCAADWYWYWFSTYDYWGQGTEVTVSS	low polyreactivity
QVQLVESGGGLVQAGGSLRLSCAASGRTFWSYAMGWYRQAPGKEREFVAAISYSGSSTYADSVKGRFTISRDNAKNTVYLQMNSLKPEDTAVYYLLRGQGTQVTVSS	low polyreactivity
QVQLVESGGGLVKAGGSLLLSCAASGIIFRRNAMGRNIQAPGKERELVAAISSSKGRTYYADSVKGRFTISRDNAKNTVYLQMNSLKPEDTAVYYCTADYDASARGWGQIAYVYWGQGTQVTVSS	low polyreactivity
QVQLVESGGGLVQAGGSLRLSCAASGSTFGVYAMGWYRQAPGKERELVAAISGSGAGTYYADSVKGRFTISRDNAKNTVYLQMNSLKPEDTAVYYCAAETYYSIYDYWGQGTQVTVSS	high polyreactivity
QVQLVESGGGLVQAGGSLRLSCAASGSIFGYAMGWYRQAPGKERELVAAITVSGGRTYYADSVKGRFTISRDNAKNTVYLQMNSLKPEDTAVYYCAAYYIKGYSPGYWGQGTQVTVSS	high polyreactivity
QVQLVESGGGLVQAGGSLRLSCAASGFTFRSNAMGWYRQAPGKVRELVAAISYSGDSTYYADSVKGRFTISRDNAMNTVYLQMNSLKPEDTAVYYCNAVGSGYRSWYDYWGQGTQVTVSS	high polyreactivity

Sequence	polyreactivity (PSR sort gate)
QVQLVESGGGLVQAGGSLRLSCAASGRTLGTNAMGWYRQAPGKERELVAAITRNGGSTYYADSVKGRFTISRDNAKNTVYLQMNSLKPEDTAVYYCAARYFHSVGGWPVSYRYNYWGQGTQVTVSS	high polyreactivity
QVQLVESGGGLVQAGGSLRLSCAASGRIFRYNTMGWYRQAPGKERELVADINSGGSTYADSVKGRFTISRDNAKNTVYLQMNSLKPEDTAVYYCNADSGLRAGYYYGYDYWGQGTQVTVSS	low polyreactivity
QVQLVESGGGLVQAGGSLRLSCAASGSIFLPNAMGWYRQAPGKERELVARITSTGSTNYADSVKGRFTISRDNAKNTVYLQMNSLKPEDTAVYYCAADYYPFYVKREQAYPDIPYDSWGQGTQVTVSS	low polyreactivity
QVQLVESGGGLVQAGGSLRLSCAASGSTFTNYAMGWYRQAPGKEREFVAAITFRGGRTYYADSVKGRFTISRDNAKNTVYLQMNSLKPEDTAVYYCNKRTSPKRFDYWGQGTQVTVSS	high polyreactivity
QVHLVESGGGLVQSGGSLRLSCAATGNIFGRYAKGWYRQAPGKERELVAGISRGVSTSYADSVKGPFTISRDNAKNTVYLQMYSLKPDDTAVYYCTKRPWYLSDYWGQGTEVTVSS	low polyreactivity
QVQLVESGGGLVQAGGSLRLSCAASGITFIVNTMGWYRQAPGKEREFVATISANSDGTYYADSVKGRFTISRDNAKNTVYLQMNSLKPEDTAVYYWGQGTQVTVSS	low polyreactivity
QVQLVESGGGLVQAGGSLRLSCAASGSIFSSNAMGWYRQAPGKERELVAAITSSGTRTYYADSVKGRFTISRDNAKNTVYLQMNSLKPEDTAVYYCATRLRRSDHRYPYDYWGQGTQVTVSS	low polyreactivity
QVQLVESGGGLVQAGGSLRLSFASSGSTFYYNAMGWYRQAPGKERDLVARISRSGGSTYADSVKGRFTISRDNAKNTVYFQMNSLKPEDTAVSYCNADAYGTPEFTSYAVRYDYGGQGTQVTVSS	low polyreactivity
QVQLVESGGGLVQAGGSLRLSCAASGSIFWYYVMGWYRQAPGKERELVAAITFSGAGTYYADSVKGRFTISRDNAKNTVYLQMNSLKPEDTAVYYCAARWLGHFYPFFLQGLSGFDYWGQGTQVTVSS	low polyreactivity
QVQLVESGGGLVQAGGSLRLSCAASGRTLRRYAMGWYRQAPGKERELVADISWRGTSTNYADSVKGRFTISRDNAKNTVYLQMNSLKPEDTAVYYCAAKQTYTRLHYLGPSVWDNYDYWGQGTQVTVSS	high polyreactivity
QVQLVESGGRLVQAGGSLRLSCAASGFIFRYNAMGWYRQAPGKERELVARITSSGGTTYYADSVKGRFTISRDSSKNTVYLQMNSLKPEDTAVYYCNARKVRYPYGWYDYWGQGTQVTVSS	high polyreactivity
QVQLVESGGGLVQAGGRLRLICSASGRIIKDNAMGWYRQAPGKERELVADISSSGGSTYYADSVKGRFTISRDNAKNTVYLQMNSLKPEDTAVYYFAKYRYPSRLYSFPLGYDYWGQGTQVTLSS	high polyreactivity
QVQLVESAGGLVQAGGSLRLSCAPSGFIFKHNAMGWYRQAPGKERECVAAISWSGDSTYYADSVKGRFTISRDNAKNTVYLQMNSLKPEDTAVYYCAAVRALRKVRDYYYWGQGTQVTVSS	high polyreactivity
QVQLVESGVGLVQAGGSLRVSCAASGSTIPIYAMGWYRQAPGKERELVAVISRSGGITYYADSVKGRFTISRDNAKNTVYLQMNSLKPEDTAVYYCNARTRGWTPDRGYWGQGTQVTVSS	high polyreactivity
QVQLVESGGGLVQAGGSLRLSCAASGRTFGVYAMGWYRQAPGKDSELVEAINNGGSTNYADSVKGRFTISRDNAKNTVYLQINSLKPEDTAVYNCNAVVGYRHWPYYRGEYDYWGQGTQVTVSS	low polyreactivity
QVQLVESGGGLVQAGGSLRLSCAASGFIFGYYAMGGYRQAPGKERELVAAISSSGTRTYYADSVKGRFTISRDNAKNTVYLQMNSLKPEDTAVYYCAVTTAYSGAFYTGEYWGQGTQVTVSS	high polyreactivity
QVQLVESGGGLVQAGGSLRLSCAASGRIFSKYAMGWNRQAPGKERELVAAITSSTKYADSVKGRFTISRDNAKNTVYLQMNSLKPEDTAVYYCNAEFGWHTYYGADFKMDYWGQGTQVTVSS	high polyreactivity
QVQHVESGGGLVQAGGSLRLSCAASGSIFRYYTMGWYRQAPGKERELVAAISYSGGRTYYADSVKGRFTISRDNAKNTVYLQMNSLKPEDTAVYYCAAKLLQLRGRGYEYWGQGTQVTVSS	high polyreactivity
QVQLVESGGGLVQAGGSLRLSCAASGSIFAYYAMGWYRQAPGKESELVARITYSTDGTYYADSVKGRFTISRDNAKNTVYLQMNSLKPEDTAVYYCAVDTWWGFKRYKFDYWGQGTQVTVSS	low polyreactivity
QVQLVESGGGLVQAGGSLRLSCAASGRTFCSNAMGWYRQAPGKERELVARISWSGGSTYYADSVKGRFTISRDNAKNTVYLQMNSLKPEVTAVYYCAKYYPGRSAFSEGTYWGQGTQVTVSS	low polyreactivity
QVQIVESGGGLVQAGGSLRLSCAASGRTFYLNAMGWYRQAPGKERELVAANRFSGGSTYYADSVKGRFTISRDNAQNTVYLQMNSLKPEDTAVYYCIAGADHALYPTVSEYGYWGQGTQVTVSS	low polyreactivity
